Results reported in article PMC4424056 (Nature structural & molecular biology, 2015).
Numbering of substitutions follows the chain as printed. Numbers in names are those of the source.

T1: FLNa-Ig21 pre-saturated β3-CT (human, UniProt P21333 2236-2330; P05106 742-788)
T1 sequence 1: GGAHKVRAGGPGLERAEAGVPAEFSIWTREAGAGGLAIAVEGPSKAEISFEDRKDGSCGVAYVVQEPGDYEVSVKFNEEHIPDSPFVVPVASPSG
T1 sequence 2: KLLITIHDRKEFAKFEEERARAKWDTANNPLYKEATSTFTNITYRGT

T2: GST-FLNa-Ig21-β3 CT chimera (human, UniProt P05106 742-788; P21333 2236-2330)
T2 chain: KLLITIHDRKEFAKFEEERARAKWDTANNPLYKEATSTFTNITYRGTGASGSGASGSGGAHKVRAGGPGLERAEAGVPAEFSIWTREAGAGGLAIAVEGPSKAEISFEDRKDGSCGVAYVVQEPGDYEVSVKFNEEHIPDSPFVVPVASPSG

T3: FLNa-Ig21 A2268K (human, UniProt P21333 2236-2330, A2268K)
T3 sequence: T1 sequence 1 with A33K

T4: filamin A immunoglobulin repeat 21 (FLNa-Ig21) (human, UniProt P21333 2236-2330)
T4 sequence: T1 sequence 1

T5: FLNa-Ig21 E2276A (human, UniProt P21333 2236-2330, E2276A)
T5 sequence: T1 sequence 1 with E41A

T6: β3 transmembrane-cytoplasmic domain (β3 TMCD, K689-T762) (human, UniProt P05106 715-788)
T6 sequence (looked up): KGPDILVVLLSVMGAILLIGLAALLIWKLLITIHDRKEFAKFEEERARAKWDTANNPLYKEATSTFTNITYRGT

B1: integrin αIIb cytoplasmic tail (αIIb CT, W988-E1008) (peptide, UniProt P08514 1019-1039, looked up)
chain: WKVGFFKRNRPPLEEDDEEGE
B2: αIIb CT K994E-R997E mutant (peptide, UniProt P08514 1019-1039, looked up)
chain: WKVGFFERNEPPLEEDDEEGE
B3: FLNa-Ig21-β3-CT chimera (other, human)
chain: T2 chain
B4: integrin β3 cytoplasmic tail (β3 CT, K716-T762) (domain or fragment, human, UniProt P05106 742-788, looked up)
chain: T1 sequence 2
B5: integrin β3 membrane-proximal fragment β3-N (K716-W739) (peptide, UniProt P05106 742-765, looked up)
chain: KLLITIHDRKEFAKFEEERARAKW
B6: β3-CT L717K-L718K mutant (domain or fragment, human, UniProt P05106 742-788, looked up)
chain: T1 sequence 2 with L2K, L3K
B7: αIIb transmembrane-cytoplasmic domain (αIIb TMCD, E960-E1008) (domain or fragment)
chain: not shown

Assays:
[1] = target: B4
[2] = target: T1, FLNa-Ig21 pre-saturated β3-CT; test: SPR
[3] = target: T2, GST-FLNa-Ig21-β3 CT chimera; test: pull-down
FLNa-Ig21 A2268K = target: T3, FLNa-Ig21 A2268K; test: NMR titration
β3-CT L717K-L718K mutant = target: B6; test: NMR structure
[4] = target: B4; test: NMR titration
[5] = target: B1; test: SPR
[6] = target: T4, filamin A immunoglobulin repeat 21 …; test: NMR titration
FLNa-Ig21 E2276A = target: T5, FLNa-Ig21 E2276A; test: NMR titration
[7] = target: T4, filamin A immunoglobulin repeat 21 …; test: SPR
[8] = target: T6, β3 transmembrane-cytoplasmic domain (β3 …); test: NMR titration

B1
Kd [1]: ~368 µM | binding result [2]: binds | binding result [3]: binds | binding result (FLNa-Ig21 A2268K): binds | binding result (β3-CT L717K-L718K mutant): binds

B2
binding result [4]: binds

B3
Kd [5]: ~19 µM

B4
binding result [6]: binds | binding result (FLNa-Ig21 E2276A): binds

B5
Kd [7]: ~223 µM

B6
binding result [6]: binds

B7
binding result [8]: binds
